Data published in publication PMC6161613, “Lack of correlation between surface expression and currents in epileptogenic AB-calmodulin binding domain Kv7.2 potassium channel mutants” (Channels, 2018).

Target: T1, Recombinant rat brain calmodulin (rat, UniProt P0DP29 1-149)
T1 construct: calmodulin, rat, recombinant; also called CaM; source: E. coli BL21 DE3, purified
Test: pull-down; purified GST fusion proteins immobilised on GSH-Sepharose 4B beads; CaM (10 μg) added, 45 min, room temperature; 25 mM Hepes, 120 mM KCl, 5 mM NaCl, pH 7.5 with 5 mM EGTA (10 mM in the results text), no Ca2+; anti-CaM Western blot, band intensities quantified (n = 3)
Conditions: both partners purified

B1: GST-neurogranin (aa 1-78) (natural protein)
chain: MDCCTENACSKPDDDILDIPLDDPGANAAAAKIQASFRGHMARKKIKSGERGRKGPGPGGPGGAGVARGGAGGGPSGD
notes: neurogranin, aa 1-78, entry NP006167 as printed; also called Nrg; source: E. coli BL21 DE3, purified (GST fusion from pGEX-3X)
  binding result: binds
